The labels stand for the following.
B1: H1-GD variant 6K1 (domain or fragment, human)
chain: DHPKYSDMIVAAIQAEKNRAGSSRQSIQQYIKSHYKVGENADSQIKLSIQRLVTTGVLQQTQGVGASGSFRLAK
notes: net charge +5; source: produced as previously described [16,34,52,78]
B2: H1-GD variant 6K2 (domain or fragment, human)
chain: B1 chain with K17Q, Q29K, Q59K, K74Q
notes: as for B1
B3: RST domain of the plant protein RCD1 (domain or fragment)
chain: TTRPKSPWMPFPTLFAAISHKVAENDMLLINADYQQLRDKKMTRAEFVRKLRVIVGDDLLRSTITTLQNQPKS
notes: folded RST domain of the plant protein RCD1, net charge +5; also called RCD1-RST; source: produced as previously described [16,34,52,78]
B4: prothymosin α (ProTα), isoform 2 (natural protein, UniProt P06454-2 1-110, looked up)
chain: MSDAAVDTSSEITTKDLKEKKEVVEEAENGRDAPANGNANEENGEQEADNEVDEEEEEGGEEEEEEEEGDGEEEDGDEDEEAESATGKRAAEDDEDDDVDTKKQKTDEDD
notes: prothymosin α, isoform 2, used for NMR (unlabelled, 15N- or 13C,15N-labelled); BMRB 27215 holds its assignments; Isotope-labelled and unlabelled forms are treated as one molecule; also called 15N-ProTα; source: produced as previously described [16,34,52,78]

Settings in all cases: both partners purified
The target in test [1] is B4. As to the kind of experiment: NMR titration; 1H-15N HSQC of 15N-ProTα (50 μM) with 4x molar ratio of GD-WT or a GD variant; sum of CSPs normalised to that with GD-WT at the same ratio and batch; 283 K, TBSK buffer, pH 7.4.
Test [2] deals with B4. As to the kind of experiment: NMR titration; 1H-15N HSQC of 15N-ProTα (28 μM) with GD up to 8x molar ratio, or 8x RST or CaM; 15N-ProTα (37 μM) with 2x full-length H1; 283 K, TBSK buffer (10 mM Tris, 155 mM KCl, 0.1 mM EDTA), pH 7.4.
Test [3] has as its target T1, wild-type human histone H1.0, full length (produced recombinantly, for NMR) (human, UniProt P07305 1-194).
T1 construct: human linker histone H1.0, wild type, full length; also called full-length H1; linker histone H1.0; source: produced recombinantly [16]
The test is described as above.

Substitutions are numbered along the chain they refer to.

T1 sequence (P07305 whole entry): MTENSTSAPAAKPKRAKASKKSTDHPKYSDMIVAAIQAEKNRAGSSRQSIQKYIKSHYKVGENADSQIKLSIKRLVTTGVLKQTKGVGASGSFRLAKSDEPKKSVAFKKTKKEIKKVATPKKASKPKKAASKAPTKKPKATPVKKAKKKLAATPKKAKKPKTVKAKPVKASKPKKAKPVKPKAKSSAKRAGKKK

In the case of B1, the “Relative CSPsum” value in test [1] is 0.11. As to B2, the “Relative CSPsum” value in test [1] was determined as 0.13. With B3, in test [2], the binding result is recorded as “binds”. Take B4: in test [3], the binding result was “binds”.

Values taken from article PMC11971343, “Role of charges in a dynamic disordered complex between an IDP and a folded domain” (Nature Communications, 2025).
